Patent US20060263802A1 (CRUCELL HOLLAND B V, published 2006)

Legend:
Assay in all cases: PEPSCAN ELISA, looped 15-mer, 10 ug/ml
[1] = biological target: looped peptide … (rabies virus strain ERA)
[2] = biological target: looped peptide … (rabies virus strain ERA); remark: listed apart in the source
[3] = biological target: looped peptide … (rabies virus strain ERA); remark: listed apart in the source
[4] = biological target: looped peptide … (rabies virus strain ERA); remark: listed apart in the source
looped peptide […] [5] = biological target: looped peptide […] (rabies virus strain ERA)
looped peptide […] [6] = biological target: looped peptide […] (rabies virus strain ERA); remark: listed apart in the source
looped peptide […] [7] = biological target: looped peptide […] (rabies virus strain ERA); remark: listed apart in the source
looped peptide […] [8] = biological target: looped peptide […] (rabies virus strain ERA); remark: listed apart in the source
looped peptide […] [9] = biological target: looped peptide […] (rabies virus strain ERA); remark: listed apart in the source
[10] = biological target: looped peptide … (rabies virus strain ERA); remark: listed apart in the source
[11] = biological target: looped peptide … (rabies virus strain ERA); remark: listed apart in the source
looped peptide […] [12] = biological target: looped peptide […] (rabies virus strain ERA); remark: listed apart in the source
[13] = biological target: looped peptide … (rabies virus strain ERA); remark: listed apart in the source
[14] = biological target: looped peptide … (rabies virus strain ERA); remark: listed apart in the source
[15] = biological target: looped peptide … (rabies virus strain ERA); remark: listed apart in the source

B1: human monoclonal antibody CRJB (antibody, V domains shown)
VH: QITLKETGPTLVKPTQTLTLTCTFSGFSLSTSGVGVGWIRQPPGKALEWVTLIYWDDDKRYSPSLENRVTIRKDTSKNQVALTMTNMDPLDTGTYYCAHRQHISSFPWFDSWGQGTLVTVSS
VL: SYVLTQPPSVSVAPGKTARINCGGNNIEYRSVHWYQQKSGQAPVAVIYDNSDRPSGIPERFSGSKSGNTATLTISRVEAGDEADYYCQVWDISSDVVFGGGTKLTVLG
OD value [1]: 68
OD value [2]: 92
OD value [3]: 79
OD value [4]: 74
OD value (looped peptide […] [5]): 206
OD value (looped peptide […] [6]): 71
OD value (looped peptide […] [7]): 156
OD value (looped peptide […] [8]): 132
OD value (looped peptide […] [9]): 87
OD value [10]: 60
OD value [11]: 79
OD value (looped peptide […] [12]): 186
OD value [13]: 76
OD value [14]: 72
OD value [15]: 63
